Laboratory results published in PMC5473941.

Assays:
[1] = biological target: microtubules polymerised from tubulin (biotinylated, Alexa 647-labelled, taxol-stabilised) (UniProt P02550); test: single-molecule TIRF microscopy; biotinylated, Alexa 647-labelled, taxol-stabilised microtubules held on PLL-PEG-biotin/streptavidin glass; TMR-dynein at 0.29 and 0.58 nM in TAB (25 mM HEPES pH 7.2, 5 mM MgSO4, 1 mM EGTA, 1 mM DTT) with α-casein, 25 mM KCl and MgATP; room temperature; Kd estimated as Koff (reciprocal of the dwell time) over Kon (binding rate) times 802 binding sites per μm
[2] = biological target: human cytoplasmic dynein-1 heavy chain, wild type, as a subunit of the dynein complex (human) (UniProt Q14204); test: negative stain EM with 2D classification; dynein at about 0.05 mg/ml in GF150, uranyl acetate; particles sorted into phi, open or ambiguous classes; mean and SEM of 9 draws of 25 micrographs
[3] = biological target: human cytoplasmic dynein-1 heavy chain, wild type, as a subunit of the dynein complex (human) (UniProt Q14204); test: electron microscopy of single particles; freshly purified protein produced in insect cells; how the proportion was counted is not told

Row | Substance | Kd [1] [µM] | percent of molecules in the open form (motor domains apart) [2] [%] | percent of molecules in the phi-particle (motor domains self-dimerised) [2] [%] | percent of molecules in the phi-particle (motor domains self-dimerised) [3] [%]
1 | full-length human cytoplasmic dynein-1 complex with the phi-interface mutations K1610E and R1567E in the heavy chain (from UniProt Q14204 1-4646; Q13409 1-638; O43237 1-492; Q9NP97 1-96; P63167 1-89; P63172 1-113) | 5.22 |  |  | 
2 | full-length human cytoplasmic dynein-1 complex, wild type (from UniProt Q14204 1-4646; Q13409 1-638; O43237 1-492; Q9NP97 1-96; P63167 1-89; P63172 1-113) | 16.4 |  |  | 
3 | human cytoplasmic dynein-1 heavy chain, wild type, as a subunit of the dynein complex, Q14204 1-4646 |  | 22 | 75 | > 85
